Experimental data taken from US20190276509A1 (Memorial Sloan Kettering, published 2019).
No end group written: not given here.

What was measured:
[1] = target: purified recombinant CBP KIX domain (Homo sapiens (Human)) (UniProt Q92793); assay: microscale thermophoresis (MST), FITC-peptide fixed, purified KIX titrated, n=3
[2] = target: purified recombinant CBP KIX domain (Homo sapiens (Human)) (UniProt Q92793); assay: microscale thermophoresis (MST), FITC-peptide at fixed concentration, purified KIX titrated; concentration read is that of KIX
[3] = target: T1, purified recombinant CBP KIX domain (Homo sapiens (Human), UniProt Q92793 587-666); assay: microscale thermophoresis (MST), FITC-peptide fixed, purified KIX titrated, n=3
T1 construct: Linker residues may remain after the thrombin cut; also called purified KIX

[4] = target: T1, purified recombinant CBP KIX domain; assay: microscale thermophoresis (MST), FITC-peptide at fixed concentration, purified KIX titrated; concentration read is that of KIX
[5] = target: T1, purified recombinant CBP KIX domain; assay: microscale thermophoresis (MST), FITC-peptide at fixed concentration, purified KIX titrated

T1 sequence (Q92793 587-666 limits assumed): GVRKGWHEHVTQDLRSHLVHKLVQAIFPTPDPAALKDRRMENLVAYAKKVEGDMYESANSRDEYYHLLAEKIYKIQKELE
Chain of purified recombinant CBP KIX domain (Homo sapiens (Human)) (Q92793 587-666 limits assumed): as above

“FITC-MYBMIM (FITC-conjugated D-amino acid retro-inverso peptide, D-aa)” was tested, and the Kd [1] was 25.4 µM and the EC50 (read off the curve) [2] was 30 µM.

B1: FITC-MYB (FITC-conjugated L-amino acid peptide, L-aa) (peptide)
peptide: YGRKKRRQRRRGGKRIKELELLLMSTENELK-NH2
modifications: not fully specified (N-terminus); also: conjugated to FITC, site not given here, N-terminal acetyl
notes: It is uncertain whether the labelled peptide carried the TAT part; also called L-aa peptide
B1 was tested, and the Kd [3] was 5.25 µM and the “EC50 (read off the curve)” value [4] was ~5 µM.

B2: FITC-TAT (fluorescein-conjugated TAT peptide, FITC-AHA-YGRKKRRQRRR-NH2) (peptide)
peptide: YGRKKRRQRRR
modifications: not fully specified; N-terminal FITC-aminohexanoic acid (FITC-AHA); C-terminal amide; L-amino acids
B2: no binding (tested: about 50 uM KIX) [5].
